In data set [1] the test system is Act-PB1 (MDH activator protein Act of Bacillus methanolicus PB1).
A further data set has as its target the MGA3 MDHs. Nature of the data set: cell-based or functional assay.
Data set [2] addresses T1, Mdh3-MGA3 (methanol dehydrogenase Mdh3 of Bacillus methanolicus MGA3) (Bacillus methanolicus MGA3).
T1 sequence: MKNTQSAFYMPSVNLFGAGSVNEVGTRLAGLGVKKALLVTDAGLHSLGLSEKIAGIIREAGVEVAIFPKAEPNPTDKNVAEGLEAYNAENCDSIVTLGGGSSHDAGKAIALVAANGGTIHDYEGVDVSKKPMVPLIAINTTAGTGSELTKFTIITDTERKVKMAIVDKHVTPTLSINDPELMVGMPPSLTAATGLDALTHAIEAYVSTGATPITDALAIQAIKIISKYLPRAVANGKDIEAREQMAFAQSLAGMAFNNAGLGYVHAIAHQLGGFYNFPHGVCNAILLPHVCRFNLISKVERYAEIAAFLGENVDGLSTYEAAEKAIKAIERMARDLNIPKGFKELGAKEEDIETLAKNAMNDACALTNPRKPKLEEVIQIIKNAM
Nature of the data set: cell-based or functional assay.

In data set [3] the target is T2, Mdh2-MGA3 (methanol dehydrogenase Mdh2 of Bacillus methanolicus MGA3) (Bacillus methanolicus MGA3).
T2 sequence: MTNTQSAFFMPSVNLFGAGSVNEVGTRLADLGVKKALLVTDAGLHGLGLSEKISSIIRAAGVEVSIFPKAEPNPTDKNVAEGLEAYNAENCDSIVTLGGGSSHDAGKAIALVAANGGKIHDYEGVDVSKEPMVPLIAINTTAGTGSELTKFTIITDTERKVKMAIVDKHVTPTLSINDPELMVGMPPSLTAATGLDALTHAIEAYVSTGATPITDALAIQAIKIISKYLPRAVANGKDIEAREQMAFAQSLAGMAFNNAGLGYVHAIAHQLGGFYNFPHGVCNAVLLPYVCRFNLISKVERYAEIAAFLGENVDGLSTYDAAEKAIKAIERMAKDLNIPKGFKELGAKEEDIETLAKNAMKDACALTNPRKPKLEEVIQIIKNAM
Briefly: cell-based or functional assay.

In data set [4] the target is T3, Mdh-MGA3 (methanol dehydrogenase Mdh of Bacillus methanolicus MGA3, encoded on plasmid pBM19) (Bacillus methanolicus MGA3) (UniProt P31005).
T3 sequence: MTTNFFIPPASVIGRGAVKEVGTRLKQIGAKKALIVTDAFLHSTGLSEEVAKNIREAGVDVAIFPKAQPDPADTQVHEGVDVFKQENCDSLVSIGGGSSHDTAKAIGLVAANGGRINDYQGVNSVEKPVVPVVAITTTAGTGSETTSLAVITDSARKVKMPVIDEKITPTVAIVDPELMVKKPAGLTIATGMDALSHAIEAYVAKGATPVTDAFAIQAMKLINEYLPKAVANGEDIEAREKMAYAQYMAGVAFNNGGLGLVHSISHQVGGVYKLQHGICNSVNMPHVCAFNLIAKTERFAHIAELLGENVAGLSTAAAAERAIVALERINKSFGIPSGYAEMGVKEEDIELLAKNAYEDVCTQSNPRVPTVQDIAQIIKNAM
Briefly: cell-based or functional assay.

Data set [5] concerns the target T4, Act-PB1 (MDH activator protein Act of Bacillus methanolicus PB1).
T4 sequence (Q8KP10 2-185, looked up): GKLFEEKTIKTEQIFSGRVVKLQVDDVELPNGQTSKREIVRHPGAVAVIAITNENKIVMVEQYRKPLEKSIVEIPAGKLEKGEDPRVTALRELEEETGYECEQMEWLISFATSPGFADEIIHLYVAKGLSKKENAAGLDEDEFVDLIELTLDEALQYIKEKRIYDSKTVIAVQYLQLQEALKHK
This is another data set of the same source.

Data set [6] deals with T5, Act-MGA3 (MDH activator protein Act of Bacillus methanolicus MGA3).
T5 sequence (Q8KP10 2-185, looked up): T4 sequence (Q8KP10 2-185, looked up)

Data set [7] addresses T6, Mdh-MGA3 (methanol dehydrogenase Mdh of Bacillus methanolicus MGA3, encoded on plasmid pBM19).
T6 chain: T3 sequence

Where two headings read alike, the source gives them in different places.

With “Mdh1-PB1 (methanol dehydrogenase Mdh1 of Bacillus methanolicus PB1)”, in data set [1], the Km for methanol in the presence of Act (20 ug MDH + 20 ug Act) is 2.3 mM; the Vmax with methanol in the presence of Act (20 ug MDH + 20 ug Act) is 0.056 U/mg; the “Vmax with methanol, with Act against single enzyme assay” value (shortened to “Vmax with methanol, with Act”) was “The Vmax values were increased 4-6-fold compared to in the single enzyme assays”; the “fold reduction of Km,MeOH by Act” value is “substantially reduced (16-fold and 70-fold, respectively) in the presence of Act”.

With “Mdh-PB1 (methanol dehydrogenase Mdh of Bacillus methanolicus PB1, encoded on plasmid pBM20)”, in data set [1], the Km for methanol in the presence of Act (20 ug MDH + 20 ug Act) was 13.9 mM; the Vmax with methanol in the presence of Act (20 ug MDH + 20 ug Act) came to 0.2 U/mg; the “Vmax with methanol, with Act” value is listed as “The Vmax values were increased 4-6-fold compared to in the single enzyme assays”; the “fold reduction of Km,MeOH by Act” value was “substantially reduced (16-fold and 70-fold, respectively) in the presence of Act”.

B1: Act-MGA3 (MDH activator protein Act of Bacillus methanolicus MGA3) (protein, UniProt Q8KP10 2-185, looked up)
Methanol dehydrogenase activator: T4 sequence (Q8KP10 2-185, looked up)
In the data set with the MGA3 MDHs, B1 displayed a fold increase of catalytic activity, ethanol as substrate of 6 to 8 fold and a fold induction of MDH activity, methanol as substrate, MDH:Act 1:1 of 5 to 7 fold. In data set [2], the Mdh activity in vitro, crude extract of E. coli co-expressing Act, 37 C, +Act was found to be 327 mU/mg; the Mdh activity in vitro, crude extract of E. coli co-expressing Act, 45 C, +Act is 867 mU/mg; the Mdh activity in vivo, E. coli cells co-expressing Act, 37 C, +Act came to 11 mU/mg; the Mdh activity in vivo, E. coli cells co-expressing Act, 42 C, +Act amounted to 24 mU/mg. In addition, in data set [3], the Mdh activity in vitro, crude extract of E. coli co-expressing Act, 37 C, +Act was 672 mU/mg; the Mdh activity in vitro, crude extract of E. coli co-expressing Act, 45 C, +Act worked out at 1910 mU/mg; the Mdh activity in vivo, E. coli cells co-expressing Act, 37 C, +Act was 9 mU/mg; the Mdh activity in vivo, E. coli cells co-expressing Act, 42 C, +Act worked out at 11.3 mU/mg. In data set [4], the Mdh activity in vitro, crude extract of E. coli co-expressing Act, 37 C, +Act was found to be 464 mU/mg; the Mdh activity in vitro, crude extract of E. coli co-expressing Act, 45 C, +Act stood at 1260 mU/mg; the Mdh activity in vivo, E. coli cells co-expressing Act, 37 C, +Act came to 1 mU/mg; the Mdh activity in vivo, E. coli cells co-expressing Act, 42 C, +Act was found to be 1 mU/mg.

B2: Mdh2-PB1 (methanol dehydrogenase Mdh2 of Bacillus methanolicus PB1) (protein)
chain: MTNTQSIFYIPSVNLFGPGSVNEVGTRLAGLGVKKALLVTDAGLHGLGLSEKIASIIREAGVEVLIFPKAEPNPTDKNVAEGLEVYNAENCDSIVTLGGGSSHDAGKGIALVAANGGTIYDYEGVDKSKKPMVPLIAINTTAGTGSELTRFTIITDTERKVKMAIVDKHVTPTLSINDPELMVGMPPSLTAATGLDALTHAIEAYVSTAATPITDALAIQAIKIISKYLPRAFANGKDMEAREQMAFAQSLAGMAFNNASLGYVHAIAHQFGGFYNFPHGVCNAILLPHVCRFNLISKVERFAEIAALLGENVAGLSTREAAEKGIKAIERMAKDLNIPRGFKELGAKEEDIVTLAENAMKDATALTNPRKPKLEEVIQIIKNAM
With B2, in data set [5], the Km for methanol in the presence of Act (20 ug MDH + 20 ug Act) was 36 mM; the Vmax with methanol in the presence of Act (20 ug MDH + 20 ug Act) was found to be 0.24 U/mg; the “Vmax with methanol, with Act” value is “The Vmax values were increased 4-6-fold compared to in the single enzyme assays”; the “fold reduction of Km,MeOH by Act” value is given as “moderately (4-fold) reduced by Act for Mdh2-PB1”.

B3: Mdh2-MGA3 (methanol dehydrogenase Mdh2 of Bacillus methanolicus MGA3) (protein)
chain: T2 sequence
Regarding B3, in data set [6], the Km for methanol in the presence of Act (20 ug MDH + 20 ug Act) was 200 mM; the Vmax with methanol in the presence of Act (20 ug MDH + 20 ug Act) worked out at 0.15 U/mg; the “Vmax with methanol, with Act” value is given as “The Vmax values were increased 4-6-fold compared to in the single enzyme assays”; the “change of Km,MeOH by Act” value is “remained essentially the same as when tested without Act”. The “methanol dehydrogenase activity in lysates of recombinant B. subtilis 168, methanol or ethanol as substrate, 50 C” value (shortened to “methanol dehydrogenase activity”) in data set [6] is “In all cases, methanol dehydrogenase activities were significantly stimulated by Act”.

B4: Mdh-MGA3 (methanol dehydrogenase Mdh of Bacillus methanolicus MGA3, encoded on plasmid pBM19) (protein)
chain: T3 sequence
B4: in data set [6], the Km for methanol in the presence of Act (20 ug MDH + 20 ug Act) came out at 12 mM; the “MDH catalytic activity with methanol as substrate, at relative concentrations of the proteins of 1:2-20:1” value was “Full activation was reached at a relative concentration of between 1:1 and 5:1 and no inhibition due to relative high activator concentrations was observed”; the Vmax with methanol in the presence of Act (20 ug MDH + 20 ug Act) worked out at 0.5 U/mg; the “Vmax with methanol, with Act” value was “The Vmax values were increased 4-6-fold compared to in the single enzyme assays”. In data set [6], the “fold reduction of Km,MeOH by Act” value was “dramatically reduced (17-fold) to 12 mM for Mdh-MGA3 when Act was added to the reaction”; the “fold stimulation of Mdh activity, ethanol as substrate” value was “Mdh activity was stimulated equally well (about 8-fold) with NudF as with Act”; the “methanol dehydrogenase activity” value is “In all cases, methanol dehydrogenase activities were significantly stimulated by Act”.

B5: B. subtilis NudF protein (nudF gene product, ADP-ribose pyrophosphatase subfamily of Nudix hydrolases) (protein)
chain: MKSLEEKTIAKEQIFSGKVIDLYVEDVELPNGKASKREIVKHPGAVAVLAVTDEGKIIMVKQFRKPLERTIVEIPAGKLEKGEEPEYTALRELEEETGYTAKKLTKITAFYTSPGFADEIVHVFLAEELSVLEEKRELDEDEFVEVMEVTLEDALKLVESREVYDAKTAYAIQYLQLKEALQAQK
For the molecule B5, the “fold stimulation of Mdh activity, ethanol as substrate” value in data set [7] is “Mdh activity was stimulated equally well (about 8-fold) with NudF as with Act”.

B6: Mdh3-MGA3 (methanol dehydrogenase Mdh3 of Bacillus methanolicus MGA3) (protein)
chain: T1 sequence
Regarding B6, in data set [6], the Km for methanol in the presence of Act (20 ug MDH + 20 ug Act) was 150 mM; the Vmax with methanol in the presence of Act (20 ug MDH + 20 ug Act) stood at 0.45 U/mg; the “Vmax with methanol, with Act” value was “The Vmax values were increased 4-6-fold compared to in the single enzyme assays”; the “change of Km,MeOH by Act” value was “remained essentially the same as when tested without Act”. Moreover, the “methanol dehydrogenase activity” value in data set [6] is “In all cases, methanol dehydrogenase activities were significantly stimulated by Act”.

Values taken from US20150267177A1.
